# From paper PMC7924223, “Functionalization of the BCL6 BTB domain into a noncovalent crystallization chaperone” (IUCrJ, 2021)
# B1: NCoR1^BBD1 peptide (high-affinity BCL6-binding domain 1 of the corepressor NCoR1) (peptide)
# peptide: GITTIKEMGRSIHEIPR
# notes: source: synthetic peptide (GL Biochem Shanghai Ltd)
# Target: BCL6 BTB domain (BCL6^BTB), residues 6-129 with C8Q, C67R and C84N (human, UniProt P41182 6-129, C8Q | C67R | C84N)
# Test: crystal structure; co-crystallization at 298 K; BCL6 proteins at 300 µM (monomer) in 20 mM HEPES pH 7.5, 300 mM NaCl, 3 mM β-mercaptoethanol; NCoR1^BBD1 peptide in 4:1, NCoR1^BBD2 peptide in 8:1 molar excess; the complex with nebulin^SH3-NCoR1^BBD1 purified by size-exclusion chromatography before crystallization
# Details: both partners purified
binder,measurement,value
B1,binding result,binds
